B1: Yeast mitochondrial transcription factor Mtf1 (His-Mtf1) (natural protein, UniProt P14908 2-341, looked up)
chain: SVPIPGIKDISKLKFFYGFKYLWNPTVYNKIFDKLDLTKTYKHPEELKVLDLYPGVGIQSAIFYNKYCPRQYSLLEKRSSLYKFLNAKFEGSPLQILKRDPYDWSTYSNLIDEERIFVPEVQSSDHINDKFLTVANVTGEGSEGLIMQWLSCIGNKNWLYRFGKVKMLLWMPSTTARKLLARPGMHSRSKCSVVREAFTDTKLIAISDANELKGFDSQCIEEWDPILFSAAEIWPTKGKPIALVEMDPIDFDFDVDNWDYVTRHLMILKRTPLNTVMDSLGHGGQQYFNSRITDKDLLKKCPIDLTNDEFIYLTKLFMEWPFKPDILMDFVDMYQTEHSG
notes: Mtf1, yeast mitochondrial transcription factor (theoretical 40 kDa); the printed PCR primers run from the codon after the start methionine (TCT GTT CCA ATC CCT: S V P I P) to the stop codon; Subcloned into pTrcHisC (Invitrogen) between NheI and HindIII; the vector's leader with the His tag precedes the protein; source: E. coli Rosetta cells, purified
B2: Rpo41 ΔN393 (N-terminal 393 residues removed, 958 aa) (domain or fragment, yeast, UniProt P13433 394-1351, looked up)
chain: SLPTLEEKKAFESALNIFNQDRQKVLENRATEAARERWKHDFEEAKARGDISIEKNLNVKLWKWYNEMLPLVKEEINHCRSLLSEKLSDKKGLNKVDTNRLGYGPYLTLIDPGKMCVITILELLKLNSTGGVIEGMRTARAVISVGKAIEMEFRSEQVLKSESQAFRDVNKKSPEFKKLVQNAKSVFRSSQIEQSKILWPQSIRARIGSVLISMLIQVAKVSVQGVDPVTKAKVHGEAPAFAHGYQYHNGSKLGVLKIHKTLIRQLNGERLIASVQPQLLPMLVEPKPWVNWRSGGYHYTQSTLLRTKDSPEQVAYLKAASDNGDIDRVYDGLNVLGRTPWTVNRKVFDVVSQVWNKGEGFLDIPGAQDEMVLPPAPPKNSDPSILRAWKLQVKTIANKFSSDRSNRCDTNYKLEIARAFLGEKLYFPHNLDFRGRAYPLSPHFNHLGNDMSRGLLIFWHGKKLGPSGLKWLKIHLSNLFGFDKLPLKDRVAFTESHLQDIKDSAENPLTGDRWWTTADKPWQALATCFELNEVMKMDNPEEFISHQPVHQDGTCNGLQHYAALGGDVEGATQVNLVPSDKPQDVYAHVARLVQKRLEIAAEKGDENAKILKDKITRKVVKQTVMTNVYGVTYVGATFQIAKQLSPIFDDRKESLDFSKYLTKHVFSAIRELFHSAHLIQDWLGESAKRISKSIRLDVDEKSFKNGNKPDFMSSVIWTTPLGLPIVQPYREESKKQVETNLQTVFISDPFAVNPVNARRQKAGLPPNFIHSLDASHMLLSAAECGKQGLDFASVHDSYWTHASDIDTMNVVLREQFIKLHEVDLVLRLKEEFDQRYKNYVKIGKLKRSTDLAQKIIRIRKDLSRKLGRSTTLADEIYFEKKRQELLNSPLIEDRNVGEKMVTTVSLFEDITDLDALELENGGDENSGMSVLLPLRLPEIPPKGDFDVTVLRNSQYFFS
notes: printed length 958 aa (theoretical 111 kDa); source: E. coli Rosetta cells, purified (same method as His-Rpo41: Ni-NTA, Superdex 200 gel filtration)
B3: Yeast mitochondrial RNA polymerase Rpo41, wild-type (His-Rpo41) (enzyme)
chain: MLRPAYKSLVKTSLLQRRLISSKGSKLFKPSPDSTSTILISEDPLVTGSSPTSSTTSGIISSNDFPLFNKNRKDAKSSISYQWKNPSELEFDPFNKSHASAVTSMTRTRDVMQLWSLLEACLQSNLMKRAFSILESLYLVPEHKQRFIEDYNMYLNSFSKNDPNFPILKMNEKLTNDLETSFKDVNYNDKTLAIMIHHALNFHSTTSSMLLKPIISAYLKMSVNGIREIFSCLDILTISDLNILMNDLKVITPSQLPNSVRPILESLTLSPTPVNNIENEEGLNKVEAENDSKLHKASNASSDSIKKPSLDPLREVSFHGSTEVLSKDAEKLIAVDTIGMRVIRHTLLGLSLTPEQKEQISKFKFDANDNVLKMKPTKNDDNNNSINFFEIYNSLPTLEEKKAFESALNIFNQDRQKVLENRATEAARERWKHDFEEAKARGDISIEKNLNVKLWKWYNEMLPLVKEEINHCRSLLSEKLSDKKGLNKVDTNRLGYGPYLTLIDPGKMCVITILELLKLNSTGGVIEGMRTARAVISVGKAIEMEFRSEQVLKSESQAFRDVNKKSPEFKKLVQNAKSVFRSSQIEQSKILWPQSIRARIGSVLISMLIQVAKVSVQGVDPVTKAKVHGEAPAFAHGYQYHNGSKLGVLKIHKTLIRQLNGERLIASVQPQLLPMLVEPKPWVNWRSGGYHYTQSTLLRTKDSPEQVAYLKAASDNGDIDRVYDGLNVLGRTPWTVNRKVFDVVSQVWNKGEGFLDIPGAQDEMVLPPAPPKNSDPSILRAWKLQVKTIANKFSSDRSNRCDTNYKLEIARAFLGEKLYFPHNLDFRGRAYPLSPHFNHLGNDMSRGLLIFWHGKKLGPSGLKWLKIHLSNLFGFDKLPLKDRVAFTESHLQDIKDSAENPLTGDRWWTTADKPWQALATCFELNEVMKMDNPEEFISHQPVHQDGTCNGLQHYAALGGDVEGATQVNLVPSDKPQDVYAHVARLVQKRLEIAAEKGDENAKILKDKITRKVVKQTVMTNVYGVTYVGATFQIAKQLSPIFDDRKESLDFSKYLTKHVFSAIRELFHSAHLIQDWLGESAKRISKSIRLDVDEKSFKNGNKPDFMSSVIWTTPLGLPIVQPYREESKKQVETNLQTVFISDPFAVNPVNARRQKAGLPPNFIHSLDASHMLLSAAECGKQGLDFASVHDSYWTHASDIDTMNVVLREQFIKLHEVDLVLRLKEEFDQRYKNYVKIGKLKRSTDLAQKIIRIRKDLSRKLGRSTTLADEIYFEKKRQELLNSPLIEDRNVGEKMVTTVSLFEDITDLDALELENGGDENSGMSVLLPLRLPEIPPKGDFDVTVLRNSQYFFS

For experiment [1], the target named is B2. As to the kind of experiment: SEC; analytical gel filtration (Superdex), 2.8 μM Rpo41 (wild-type or ΔN393) with 5.6 μM Mtf1, no DNA; peak fractions on SDS-PAGE with densitometry; apparent Kd; 40 mM Tris-HCl pH 7.9, 150 mM NaCl, 0.1% Tween 20, 15% glycerol, 1 mM EDTA, 1 mM DTT. As to conditions: both partners purified. (In general: In gel filtration, larger molecules generally elute earlier.)

Experiment [2] concerns the target B2. As to the kind of experiment: SEC; analytical gel filtration (Superdex), 1 μM Rpo41 (wild-type or ΔN393), 2 μM Mtf1 and 3 μM 20 bp duplex DNA with the 14S rRNA promoter; peak fractions on SDS-PAGE with densitometry; apparent Kd in the presence of DNA; 40 mM Tris-HCl pH 7.9, 150 mM NaCl, 0.1% Tween 20, 15% glycerol, 1 mM EDTA, 1 mM DTT. Particulars: both partners purified.

For experiment [3], the target named is B1. Put plainly: cell-based or functional assay.
The target in experiment [4] is B1. Put plainly: SEC; analytical gel filtration (Superdex), 1 μM Rpo41 (wild-type or ΔN393), 2 μM Mtf1 and 3 μM 20 bp duplex DNA with the 14S rRNA promoter; peak fractions on SDS-PAGE with densitometry; apparent Kd in the presence of DNA; 40 mM Tris-HCl pH 7.9, 150 mM NaCl, 0.1% Tween 20, 15% glycerol, 1 mM EDTA, 1 mM DTT. As to conditions: both partners purified.
Experiment [5] deals with B1. Put plainly: SEC; analytical gel filtration (Superdex), 2.8 μM Rpo41 (wild-type or ΔN393) with 5.6 μM Mtf1, no DNA; peak fractions on SDS-PAGE with densitometry; apparent Kd; 40 mM Tris-HCl pH 7.9, 150 mM NaCl, 0.1% Tween 20, 15% glycerol, 1 mM EDTA, 1 mM DTT. Particulars: both partners purified.
Experiment [6] addresses B1. The experiment is described as above. As to conditions: both partners purified. This is another data set of the same source.
For experiment [7], the target named is B1. As to the kind of experiment: SEC; analytical gel filtration (Superdex), 1 μM Rpo41 (wild-type or ΔN393), 2 μM Mtf1 and 3 μM 20 bp duplex DNA with the 14S rRNA promoter; peak fractions on SDS-PAGE with densitometry; apparent Kd in the presence of DNA; 40 mM Tris-HCl pH 7.9, 150 mM NaCl, 0.1% Tween 20, 15% glycerol, 1 mM EDTA, 1 mM DTT. Particulars: both partners purified. This is another data set of the same source.

From paper PMC4558008, “Yeast Mitochondrial Transcription Factor Mtf1 Determines the Precision of Promoter-Directed Initiation of RNA Polymerase Rpo41” (PLoS ONE, 2015) come the findings set out here.

One may read the stoichiometry N as the number of molecules, sites or subunits per partner or assembly.

B1: the Kd in experiment [1] was 13 µM; in experiment [2], 0.6 µM.
On to B2, for which the “activity of the holoenzyme on the 70 bp linear 14S rRNA promoter template, relative to the wild-type enzyme” value in experiment [3] is 20%. Moreover, in experiment [4], the “stoichiometry N” value worked out at 1.
For the molecule B3, in experiment [5], the “stoichiometry N” value was found to be 1. The results for the Kd in experiment [6] and in experiment [7] were 4 µM and 0.02 µM, respectively.
